As a reminder, the IC50 is the concentration that gives 50% inhibition. Low values mean inhibition by little substance, high ones a need for much substance.

The results in this text go back to patent US20040077045A1.

The experiment has as its target T1, HLA-DR13 (DRB1*1301), purified (human).
T1 chain 1: not shown
T1 chain 2: not shown
In words: competition on purified HLA-DR (DRB1*1301) against biotinylated B1 21-36 (200 nM, pH 4.5); fluorescence assay.

B1: B1 21-36 (…), unlabeled reference peptide (peptide)
peptide: TERVRLVTRHIYNREE
modifications: not checked
The molecule B1 had an IC50 of 390 nM.
